Literature values as cited in PMC7851832.

Molecular target: FGFR2 (Homo sapiens) (UniProt P21802)
Sequence (P21802 22-821): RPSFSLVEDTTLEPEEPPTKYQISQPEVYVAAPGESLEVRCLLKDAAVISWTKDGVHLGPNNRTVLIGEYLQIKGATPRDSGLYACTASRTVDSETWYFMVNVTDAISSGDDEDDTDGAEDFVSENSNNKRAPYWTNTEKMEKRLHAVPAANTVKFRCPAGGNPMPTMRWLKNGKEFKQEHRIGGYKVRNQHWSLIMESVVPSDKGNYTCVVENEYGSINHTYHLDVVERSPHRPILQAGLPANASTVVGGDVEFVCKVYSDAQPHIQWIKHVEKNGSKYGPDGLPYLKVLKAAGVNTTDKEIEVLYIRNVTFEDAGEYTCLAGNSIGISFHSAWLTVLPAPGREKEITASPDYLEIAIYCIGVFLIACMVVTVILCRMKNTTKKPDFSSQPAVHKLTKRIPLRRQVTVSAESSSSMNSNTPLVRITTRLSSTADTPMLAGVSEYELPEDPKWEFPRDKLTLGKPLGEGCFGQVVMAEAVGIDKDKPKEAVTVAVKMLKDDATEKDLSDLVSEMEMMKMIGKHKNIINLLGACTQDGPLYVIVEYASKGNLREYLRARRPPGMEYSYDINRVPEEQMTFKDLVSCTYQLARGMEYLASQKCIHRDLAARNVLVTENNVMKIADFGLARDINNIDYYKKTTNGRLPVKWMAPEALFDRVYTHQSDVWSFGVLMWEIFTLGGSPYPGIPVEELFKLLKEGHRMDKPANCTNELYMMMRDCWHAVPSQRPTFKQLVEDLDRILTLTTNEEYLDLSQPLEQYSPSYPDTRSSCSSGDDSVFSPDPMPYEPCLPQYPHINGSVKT

Chain of FGF1 (P05230 16-155): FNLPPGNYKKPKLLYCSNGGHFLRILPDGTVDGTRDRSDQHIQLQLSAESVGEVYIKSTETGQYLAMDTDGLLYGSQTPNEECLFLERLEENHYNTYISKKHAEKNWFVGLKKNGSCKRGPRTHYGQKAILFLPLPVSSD

- Kd: 300 nM
Substance: FGF1 (from UniProt P05230)
